# Assay results published in paper PMC8131196, “Structure and dynamics of a mycobacterial type VII secretion system” (Nature, 2021).
# T1: EccC5 (M. tuberculosis H37Rv, UniProt P9WNA5 1-1391)
# T1 construct: also called EccC5 ATPase; not shown: TwinStrep, C-terminal, kept
# T1 sequence: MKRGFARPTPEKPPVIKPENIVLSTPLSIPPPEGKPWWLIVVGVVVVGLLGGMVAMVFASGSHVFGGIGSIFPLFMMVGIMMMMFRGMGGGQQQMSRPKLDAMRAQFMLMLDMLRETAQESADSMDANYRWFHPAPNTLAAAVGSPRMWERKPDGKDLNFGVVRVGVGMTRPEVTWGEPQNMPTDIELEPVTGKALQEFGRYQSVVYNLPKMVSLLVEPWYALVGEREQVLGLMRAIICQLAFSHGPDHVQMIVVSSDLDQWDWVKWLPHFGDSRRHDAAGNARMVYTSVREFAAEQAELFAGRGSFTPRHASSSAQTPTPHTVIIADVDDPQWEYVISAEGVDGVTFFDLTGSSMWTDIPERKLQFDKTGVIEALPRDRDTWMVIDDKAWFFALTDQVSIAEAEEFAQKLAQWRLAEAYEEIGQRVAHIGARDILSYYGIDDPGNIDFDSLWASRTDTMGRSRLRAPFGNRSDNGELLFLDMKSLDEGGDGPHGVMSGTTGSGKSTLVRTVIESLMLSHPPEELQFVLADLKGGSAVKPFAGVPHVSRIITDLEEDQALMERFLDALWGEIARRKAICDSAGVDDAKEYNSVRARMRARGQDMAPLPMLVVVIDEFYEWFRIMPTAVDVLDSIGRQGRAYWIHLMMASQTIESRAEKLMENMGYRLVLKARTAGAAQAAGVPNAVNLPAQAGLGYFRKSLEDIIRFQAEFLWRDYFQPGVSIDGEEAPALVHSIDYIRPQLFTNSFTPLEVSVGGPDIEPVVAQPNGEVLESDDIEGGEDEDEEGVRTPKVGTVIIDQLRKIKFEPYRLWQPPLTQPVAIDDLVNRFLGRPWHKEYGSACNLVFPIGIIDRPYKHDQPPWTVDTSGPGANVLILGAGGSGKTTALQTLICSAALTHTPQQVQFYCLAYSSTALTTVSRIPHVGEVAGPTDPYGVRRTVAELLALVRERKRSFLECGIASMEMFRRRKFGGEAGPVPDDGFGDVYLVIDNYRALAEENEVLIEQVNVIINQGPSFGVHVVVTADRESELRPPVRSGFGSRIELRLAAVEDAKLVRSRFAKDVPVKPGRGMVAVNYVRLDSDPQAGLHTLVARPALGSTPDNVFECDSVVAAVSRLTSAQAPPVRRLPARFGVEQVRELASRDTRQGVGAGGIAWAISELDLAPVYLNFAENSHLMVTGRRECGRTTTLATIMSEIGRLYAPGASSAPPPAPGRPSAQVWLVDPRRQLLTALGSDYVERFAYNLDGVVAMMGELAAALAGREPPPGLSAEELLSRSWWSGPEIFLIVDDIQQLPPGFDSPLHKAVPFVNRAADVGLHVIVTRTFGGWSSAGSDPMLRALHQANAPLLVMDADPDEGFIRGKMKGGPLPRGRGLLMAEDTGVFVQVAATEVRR
# T2: MycP5 protease (M. tuberculosis H37Rv, UniProt O53945 40-585)
# T2 construct: also called mycosin
# T2 sequence: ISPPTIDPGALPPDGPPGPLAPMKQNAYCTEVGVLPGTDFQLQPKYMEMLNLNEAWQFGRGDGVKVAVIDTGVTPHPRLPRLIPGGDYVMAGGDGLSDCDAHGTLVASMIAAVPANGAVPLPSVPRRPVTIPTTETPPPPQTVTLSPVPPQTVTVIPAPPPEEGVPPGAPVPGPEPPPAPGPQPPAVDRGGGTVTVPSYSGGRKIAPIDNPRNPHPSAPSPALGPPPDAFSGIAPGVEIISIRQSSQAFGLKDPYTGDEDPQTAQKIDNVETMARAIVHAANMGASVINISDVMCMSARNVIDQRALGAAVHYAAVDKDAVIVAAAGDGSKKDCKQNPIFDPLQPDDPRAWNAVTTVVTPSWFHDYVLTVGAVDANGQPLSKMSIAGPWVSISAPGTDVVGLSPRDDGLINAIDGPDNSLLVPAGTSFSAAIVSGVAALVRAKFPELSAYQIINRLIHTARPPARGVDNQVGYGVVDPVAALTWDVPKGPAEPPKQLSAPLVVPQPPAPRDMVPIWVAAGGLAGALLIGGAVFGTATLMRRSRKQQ
# T3: EccB5 (M. tuberculosis H37Rv, UniProt P9WNQ9 1-506)
# T3 construct: also called inner EccB5; outer EccB5
# T3 sequence: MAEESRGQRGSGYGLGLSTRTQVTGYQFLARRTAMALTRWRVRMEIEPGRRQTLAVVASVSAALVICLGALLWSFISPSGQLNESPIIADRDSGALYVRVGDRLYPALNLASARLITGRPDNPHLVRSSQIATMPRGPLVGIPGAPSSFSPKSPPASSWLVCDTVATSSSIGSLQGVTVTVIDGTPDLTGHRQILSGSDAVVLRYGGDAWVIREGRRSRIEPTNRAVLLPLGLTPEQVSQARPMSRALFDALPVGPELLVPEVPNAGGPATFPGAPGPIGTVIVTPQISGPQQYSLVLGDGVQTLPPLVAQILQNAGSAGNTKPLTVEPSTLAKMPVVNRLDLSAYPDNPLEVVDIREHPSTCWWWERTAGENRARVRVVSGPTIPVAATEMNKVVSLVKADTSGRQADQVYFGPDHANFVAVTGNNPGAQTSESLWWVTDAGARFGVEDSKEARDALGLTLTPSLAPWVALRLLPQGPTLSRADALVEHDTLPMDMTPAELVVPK
# Key:
# Test in all cases: cryo-EM structure
# [1] = molecular target: T1, EccC5; conditions: both partners purified
# [2] = molecular target: T2, MycP5 protease; conditions: both partners purified
# [3] = molecular target: the molecule itself
# [4] = molecular target: T3, EccB5; conditions: both partners purified
binder,measurement,setting,value
"EccD5 (natural protein, also called inner EccD5; outer EccD5) MTAVADAPQADIEGVASPQAVVVGVMAGEGVQIGVLLDANAPVSVMTDPLLKVVNSRLRELGEAPLEATGRGRWALCLVDGAPLRATQSLTEQDVYDGDRLWIRFIADTERRSQVIEHISTAVASDLSKRFARIDPIVAVQVGASMVATGVVLATGVLGWWRWHHNTWLTTIYTAVIGVLVLAVAMLLLMRAKTDADRRVADIMLMSAIMPVTVAAAAAPPGPVGSPQAVLGFGVLTVAAALALRFTGRRLGIYTTIVIIGALTMLAALARMVAATSAVTLLSSLLLICVVAYHAAPALSRRLAGIRLPVFPSATSRWVFEARPDLPTTVVVSGGSAPVLEGPSSVRDVLLQAERARSFLSGLLTGLGVMVVVCMTSLCDPHTGQRWLPLILAGFTSGFLLLRGRSYVDRWQSITLAGTAVIIAAAVCVRYALELSSPLAVSIVAAILVLLPAAGMAAAAHVPHTIYSPLFRKFVEWIEYLCLMPIFPLALWLMNVYAAIRYR",binding result,[1],binds
same,binding result,[2],binds
same,stoichiometry N,[3],2
same,binding result,[4],binds
